Two molecules from publication PMC9784018, “Rational Strategy for Designing Peptidomimetic Small Molecules Based on Cyclic Peptides Targeting Protein–Protein Interaction between CTLA-4 and B7-1” (Pharmaceuticals, 2022) can be followed below.

For test [1], the target named is CTLA-4 (coated for ELISA) (UniProt P16410). Description: ELISA; CTLA-4 (5 μg/mL) coated on 384-well plate; purified MBP–peptide–His-tag fusion in 15-point two-fold dilution from 14 μM to 0.85 nM in PBS with 0.5% BSA, 1 h; detected with anti-FLAG M2 peroxidase antibody; EC50 = midpoint concentration.
The target of test [2] is CTLA-4 of the CTLA-4:B7-1[Biotinylated] Inhibitor Screening Assay kit (UniProt P16410). Description: ELISA; CTLA-4:B7-1[Biotinylated] Inhibitor Screening Assay kit (BPS Bioscience) with the MBP–peptide–His-tag fusion protein; data not shown.
Test [3] has as its target CTLA-4 (coated for ELISA), P16410. Description: ELISA. The conditions noted are these: chain shown with the change; CTLA-4 coated at 5 μg/mL on the ELISA plate. On the technique in general: ELISA stands for enzyme-linked immunosorbent assay.

Chain of CTLA-4 (coated for ELISA), P16410 (P16410 36-161): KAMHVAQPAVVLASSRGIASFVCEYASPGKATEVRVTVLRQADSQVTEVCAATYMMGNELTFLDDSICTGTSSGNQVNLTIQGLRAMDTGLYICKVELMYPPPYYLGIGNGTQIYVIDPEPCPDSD

In test [1], CMHPFLPIVSHHFCER [MBP–C4m-3127 peptide–His-tag fusion protein] gave an EC50 of 74.7 nM. The IC50 in test [2] is 1360 nM. CLHPFLPIVSHHFCGR [MBP–C4-302–His-tag fusion protein M1L; L6P; V7I; G(+2)R] came in with an EC50 in test [3] of 81.8 nM.

In general, EC50 refers to the concentration needed to bring the measured effect to its halfway point. Low readings indicate greater potency, high ones weaker potency. Usually IC50 stands for the concentration at which inhibition is half-maximal. The low end stands for greater potency in that assay, the high end for weaker potency in that assay.
